Results taken from the Immune Epitope Database (IEDB).
Blank lines part the entries; values can stand above or below the sequence they belong to.

Columns and labels:
Assay in all cases: IEDB peptide-MHC binding, purified MHC/competitive/radioactivity; filed as Kd, often an IC50 or EC50 that approximates it; ≥ and ≤ were set here for values at or beyond the usual limits of such assays
HLA-A*02:02 = biological target: HLA-A*02:02
HLA-A*02:03 = biological target: HLA-A*02:03
HLA-A*02:06 = biological target: HLA-A*02:06
[1] = source organism: Vaccinia virus WR
[2] = source organism: SARS coronavirus Tor2
[3] = source organism: Lymphocytic choriomeningitis virus (strain Armstrong)

Sequence: AAITLVVISV
Kd (HLA-A*02:02; [1]): 501 nM
Kd (HLA-A*02:03; [1]): 246 nM
Kd (HLA-A*02:06; [1]): 26.8 nM

Sequence: ALAEHISDSI
Kd (HLA-A*02:02; [1]): 0.198 nM
Kd (HLA-A*02:03; [1]): 0.34 nM
Kd (HLA-A*02:06; [1]): 163 nM

Sequence: ALKAYFTAKI
Kd (HLA-A*02:02; [1]): 194 nM
Kd (HLA-A*02:03; [1]): 77 nM
Kd (HLA-A*02:06; [1]): 2780 nM

Sequence: ALLFLMSFTI
Kd (HLA-A*02:02; [2]): 0.365 nM
Kd (HLA-A*02:03; [2]): 199 nM
Kd (HLA-A*02:06; [2]): 14.4 nM

Sequence: CAVIPFDDI
Kd (HLA-A*02:02; [1]): 15800 nM
Kd (HLA-A*02:03; [1]): ≥ 10000 nM
Kd (HLA-A*02:06; [1]): 1160 nM

Sequence: CIVAAVIIM
Kd (HLA-A*02:02; [1]): 14300 nM
Kd (HLA-A*02:03; [1]): 1420 nM
Kd (HLA-A*02:06; [1]): ≥ 32600 nM

Sequence: CTNDIYCDEI
Kd (HLA-A*02:02; [1]): 2460 nM
Kd (HLA-A*02:03; [1]): 5720 nM
Kd (HLA-A*02:06; [1]): 4760 nM

Sequence: DAKRNSKSL
Kd (HLA-A*02:02; [1]): 13700 nM
Kd (HLA-A*02:03; [1]): ≥ 49700 nM
Kd (HLA-A*02:06; [1]): ≥ 77100 nM

Sequence: DAMIHKTYI
Kd (HLA-A*02:02; [1]): 5420 nM
Kd (HLA-A*02:03; [1]): 1520 nM
Kd (HLA-A*02:06; [1]): 9570 nM

Sequence: DTIAHINTL
Kd (HLA-A*02:02; [1]): 747 nM
Kd (HLA-A*02:03; [1]): 233 nM
Kd (HLA-A*02:06; [1]): 11200 nM

Sequence: DVEKEKFVAT
Kd (HLA-A*02:02; [1]): ≥ 37500 nM
Kd (HLA-A*02:03; [1]): ≥ 54800 nM
Kd (HLA-A*02:06; [1]): ≥ 69200 nM

Sequence: DVSLSAYII
Kd (HLA-A*02:02; [1]): 691 nM
Kd (HLA-A*02:03; [1]): 755 nM
Kd (HLA-A*02:06; [1]): 4380 nM

Sequence: EIVSHLRAST
Kd (HLA-A*02:02; [1]): 5150 nM
Kd (HLA-A*02:03; [1]): 2810 nM
Kd (HLA-A*02:06; [1]): 12600 nM

Sequence: ELSRLRYNL
Kd (HLA-A*02:02; [1]): 0.93 nM
Kd (HLA-A*02:03; [1]): 254 nM
Kd (HLA-A*02:06; [1]): 18600 nM

Sequence: ELTSNCTRTT
Kd (HLA-A*02:02; [1]): 14600 nM
Kd (HLA-A*02:03; [1]): 1470 nM
Kd (HLA-A*02:06; [1]): 5720 nM

Sequence: ELWARISSSL
Kd (HLA-A*02:02; [1]): 175 nM
Kd (HLA-A*02:03; [1]): 324 nM
Kd (HLA-A*02:06; [1]): 9290 nM

Sequence: EMKYALINLV
Kd (HLA-A*02:02; [1]): 1260 nM
Kd (HLA-A*02:03; [1]): 283 nM
Kd (HLA-A*02:06; [1]): 9830 nM

Sequence: FIPIIYSKA
Kd (HLA-A*02:02; [1]): 0.555 nM
Kd (HLA-A*02:03; [1]): 1.81 nM
Kd (HLA-A*02:06; [1]): 94.6 nM

Sequence: FLFLAWIMLL
Kd (HLA-A*02:02; [2]): 18.6 nM
Kd (HLA-A*02:03; [2]): 55.7 nM
Kd (HLA-A*02:06; [2]): 1010 nM

Sequence: FLLNKEMYL
Kd (HLA-A*02:02; [2]): 0.329 nM
Kd (HLA-A*02:03; [2]): 1.13 nM
Kd (HLA-A*02:06; [2]): 1.6 nM

Sequence: FLTSLLILV
Kd (HLA-A*02:02; [2]): 2.17 nM
Kd (HLA-A*02:03; [2]): 12 nM
Kd (HLA-A*02:06; [2]): 3.31 nM

Sequence: FVLALYSPPL
Kd (HLA-A*02:02; [1]): 2.19 nM
Kd (HLA-A*02:03; [1]): 38.4 nM
Kd (HLA-A*02:06; [1]): 212 nM

Sequence: GLILFVLAL
Kd (HLA-A*02:02; [1]): 129 nM
Kd (HLA-A*02:03; [1]): 452 nM
Kd (HLA-A*02:06; [1]): 7800 nM

Sequence: HNASDFYGL
Kd (HLA-A*02:02; [3]): 6510 nM
Kd (HLA-A*02:03; [3]): ≥ 78100 nM
Kd (HLA-A*02:06; [3]): ≥ 21700 nM

Sequence: IAMLKSKNI
Kd (HLA-A*02:02; [1]): ≥ 37700 nM
Kd (HLA-A*02:03; [1]): 846 nM
Kd (HLA-A*02:06; [1]): 10600 nM

Sequence: IAVSVYGAIT
Kd (HLA-A*02:02; [1]): 7890 nM
Kd (HLA-A*02:03; [1]): 9240 nM
Kd (HLA-A*02:06; [1]): 14400 nM

Sequence: ILSLETVKM
Kd (HLA-A*02:02; [1]): 4.77 nM
Kd (HLA-A*02:03; [1]): 11.8 nM
Kd (HLA-A*02:06; [1]): 280 nM

Sequence: IMAFILGII
Kd (HLA-A*02:02; [1]): 17 nM
Kd (HLA-A*02:03; [1]): 29.8 nM
Kd (HLA-A*02:06; [1]): 175 nM

Sequence: ITMTTVYHI
Kd (HLA-A*02:02; [2]): 19.2 nM
Kd (HLA-A*02:03; [2]): 7.21 nM
Kd (HLA-A*02:06; [2]): 2.31 nM

Sequence: IVNCLSLSNL
Kd (HLA-A*02:02; [1]): 338 nM
Kd (HLA-A*02:03; [1]): 128 nM
Kd (HLA-A*02:06; [1]): 1280 nM

Sequence: IVPEFAKQYV
Kd (HLA-A*02:02; [1]): 10.3 nM
Kd (HLA-A*02:03; [1]): 18.3 nM
Kd (HLA-A*02:06; [1]): 15 nM

Sequence: KLFKRERDAI
Kd (HLA-A*02:02; [1]): 92.5 nM
Kd (HLA-A*02:03; [1]): 120 nM
Kd (HLA-A*02:06; [1]): 14200 nM

Sequence: KLYGYASLT
Kd (HLA-A*02:02; [1]): 75.8 nM
Kd (HLA-A*02:03; [1]): 21.5 nM
Kd (HLA-A*02:06; [1]): 1990 nM

Sequence: LAISAVYFKA
Kd (HLA-A*02:02; [1]): 1430 nM
Kd (HLA-A*02:03; [1]): 363 nM
Kd (HLA-A*02:06; [1]): 659 nM

Sequence: LLLSICLGSL
Kd (HLA-A*02:02; [2]): 20.1 nM
Kd (HLA-A*02:03; [2]): 104 nM
Kd (HLA-A*02:06; [2]): 258 nM

Sequence: LQDIVNEHDI
Kd (HLA-A*02:02; [1]): 7630 nM
Kd (HLA-A*02:03; [1]): ≥ 38200 nM
Kd (HLA-A*02:06; [1]): 10900 nM

Sequence: LQWDDNIPEL
Kd (HLA-A*02:02; [1]): 180 nM
Kd (HLA-A*02:03; [1]): 712 nM
Kd (HLA-A*02:06; [1]): 34.4 nM

Sequence: LTHFNNNENV
Kd (HLA-A*02:02; [1]): 907 nM
Kd (HLA-A*02:03; [1]): 7270 nM
Kd (HLA-A*02:06; [1]): 996 nM

Sequence: MAAAKTPVI
Kd (HLA-A*02:02; [1]): 259 nM
Kd (HLA-A*02:03; [1]): 209 nM
Kd (HLA-A*02:06; [1]): 672 nM

Sequence: MTSTRTIILV
Kd (HLA-A*02:02; [1]): 1980 nM
Kd (HLA-A*02:03; [1]): 920 nM
Kd (HLA-A*02:06; [1]): 217 nM

Sequence: MVTDKTAYI
Kd (HLA-A*02:02; [1]): 16.8 nM
Kd (HLA-A*02:03; [1]): 1.99 nM
Kd (HLA-A*02:06; [1]): 25.2 nM

Sequence: NASKTINAL
Kd (HLA-A*02:02; [1]): 117 nM
Kd (HLA-A*02:03; [1]): 708 nM
Kd (HLA-A*02:06; [1]): 6100 nM

Sequence: NISFKSINKV
Kd (HLA-A*02:02; [1]): ≥ 20300 nM
Kd (HLA-A*02:03; [1]): 1530 nM
Kd (HLA-A*02:06; [1]): 11700 nM

Sequence: NLERETGLSA
Kd (HLA-A*02:02; [1]): 17600 nM
Kd (HLA-A*02:03; [1]): 1660 nM
Kd (HLA-A*02:06; [1]): 15100 nM

Sequence: NVISKIYTL
Kd (HLA-A*02:02; [1]): 147 nM
Kd (HLA-A*02:03; [1]): 96.7 nM
Kd (HLA-A*02:06; [1]): 1.75 nM

Sequence: NVTGFMEEEI
Kd (HLA-A*02:02; [1]): 10300 nM
Kd (HLA-A*02:03; [1]): 5140 nM
Kd (HLA-A*02:06; [1]): 17700 nM

Sequence: QTGINNVQSL
Kd (HLA-A*02:02; [1]): ≥ 20200 nM
Kd (HLA-A*02:03; [1]): ≥ 24400 nM
Kd (HLA-A*02:06; [1]): ≥ 54000 nM

Kd (HLA-A*02:03; source organism: Homo sapiens): 23.8 nM
Kd (HLA-A*02:06; source organism: Homo sapiens): 10600 nM
Sequence: SLIGSKTQI
